For the series, the system named is F1*sub RNA substrate (template-directed ligation). Description: fraction ligated after 30 min (ligated reads / total reads); higher = more ligase activity; sequences stand for … in GAGACCGCAACTGAAAAGTTGT…AGTTCTGCACGTAGAAGCAAAAGGC
To be noted: 42 °C. The procedure: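 Chip-synthesised pool of F1* ligase ribozyme variants (all single and double substitutions, single, double and triple deletions in the catalytic core and GAA bulge, plus designed variants) was transcribed with T7 and reacted as a pool with excess substrate F1*sub for 30 min at 42 C in 50 mM EPPS pH 8.5, 25 mM MgCl2. Ligated and unligated bands were separated by PAGE, barcoded by RT and deep sequenced; fraction ligated = ligated reads / total reads per variant, relative activity = FL / FL of wild type (0.826). Sequences are the DNA template of the ribozyme.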
With “TATCCTTGTCGTAAACACTTTGGAGGGTTGA [3d1061]”, the fraction ligated came out at 0.0122. On to TATCCTTGTCGAAGACACTTTGGATGGGTTGA [2d95], for which the fraction ligated worked out at 0.806. The same measure for ATCACTTGTCGTAAGACACTTGATGGGTTGA [3d254]: 0.164; for ATCACTGTCTAAGACACTTTGGATGGGTTGA [3d109]: 0.756; for “TATCACTTGTCGTAAGAACTTGGATGGTTGA [3d2163]”: 0.0536. The sequence ATCACTTGTCGTAAGAACTTTGGATGGGTTA [3d237] gave a fraction ligated of 0.351. As for TATCCTGTCGTAAGACACTTTGGATGGTTGA [3d965], the figure is 0.038; as for “TATCCTTGTCGAAGACCTTTGGATGGGTTGA [3d1033]”, 0.747.

In turn, “TATCACTTGTCGTAAGACACTTGGATGGGTTG [2d282]” yielded a fraction ligated of 0.777. The same measure for “TATCACTTGTCGTAAGACATTGGATGGGTTG [3d2213]”: 0.797.

For “TATCACTTGTGTAAGACATTTGGATGGGTTA [3d1784]”, the fraction ligated was determined as 0.822. Turning to TTCACTTGTCGAGACACTTTGGATGGGTTGA [3d416], the fraction ligated was found to be 0.206.

Regarding TTCATTGTCGTAAGAACTTTGGATGGGTTGA [3d326], the fraction ligated was found to be 0.149. For “TATCACTGCTAAGACACTTTGGATGGGTTGA [3d1328]”, the fraction ligated is 0.81. As for TTCACTTGTCGTAAACACTTTGGATGGGTTA [3d450], the figure is 0.0146. The same measure for “TATCACTTGTCTAAGACATTGGATGGGTTGA [3d1871]”: 0.796; for “TATCACTTGTCGTAAGACCTTGGATGGGTTG [3d2189]”: 0.79. As for “TATCACTTGTCGTAAGCACTTTGATGGGTTA [3d2139]”, the figure is 0.124; as for “TATCCTTGTCGTAGACACTTTGATGGGTTGA [3d1049]”, 0.804; as for TATACTTGCGTAAGACACTTTGGATGGGTTA [3d826], 0.0217.

“TATCACTTTCGTAGACACTTGGATGGGTTGA [3d1512]” yielded a fraction ligated of 0.752. Consider TTCACTTGTGTAAGACACTTTGATGGGTTGA [3d396], for which the fraction ligated worked out at 0.122. The same measure for “TATCACTTGCTAAGACCTTTGGATGGGTTGA [3d1604]”: 0.811; for TATACTTGTCGTAAGACACTTTGGAGGGTTGA [2d86]: 0.0419; for TTCACTTGTCGTAGACACTTTGGATGGGTTGA [2d34]: 0.798.

TACATTGTGTAAGACACTTTGGATGGGTTGA [3d550] yielded a fraction ligated of 0.0317. With TTCACTTGTCGTAGAACTTTGGATGGGTTGA [3d432], the fraction ligated worked out at 0.761. As for ATCACTTGTCGTAAGACACTTTGGTGGGTTG [3d269], the figure is 0.0136; as for “TATCCTTGTCGTAAGACACTTGATGGGTTGA [3d1098]”, 0.745. The same measure for “TATCATGTCGAAGACACTTTGGATGGGTTGA [3d1126]”: 0.792.

In the case of “TATCACTTGTGTAAGCACTTTGGATGGGTTA [3d1762]”, the fraction ligated turned out to be 0.831.

“TATCACTTGTCTAAGCACTTGGATGGGTTGA [3d1849]” registered a fraction ligated of 0.766. The same measure for TAACTTGTCGTAAGCACTTTGGATGGGTTGA [3d517]: 0.142.

The sequence TACACTTGTCAAGACACTTTGGATGGGTTGA [3d632] gave a fraction ligated of 0.167. As for “TATCACTTGCGTAAGACACTTTGATGGGTTG [3d1693]”, the figure is 0.725.

As for “TATCACTTGTCGTAAACATTTGGATGGGTTA [3d2079]”, the fraction ligated was determined as 0.822. As for “TATCACTTGTCGGACACTTTGGATGGGTTGA [3d1902]”, the figure is 0.785; as for TATACTTGTCGTAAGAACTTTGGATGGTTGA [3d908], 0.0441; as for TATACTTGTGTAAGAACTTTGGATGGGTTGA [3d833], 0.814. As for “TATCACTGTCGTAGACCTTTGGATGGGTTGA [3d1389]”, the figure is 0.837; as for TATCCTGTCGTAAGACCTTTGGATGGGTTGA [3d959], 0.772; as for “TATCACTTGTCGTAGACACTTTGGATGGGTTA [2d232]”, 0.825. The same measure for TATACTTTCGTAAGAACTTTGGATGGGTTGA [3d802]: 0.778. On to “TATCACTTGTGTAAGACATTTGGTGGGTTGA [3d1781]”, for which the fraction ligated was 0.0614. The same measure for “TATCACTTGTCGAAGAACTTTGATGGGTTGA [3d1937]”: 0.796.

The sequence TACACTTGTCGTAACACTTTGGATGGGTTGA [3d660] displayed a fraction ligated of 0.00473.

Turning to ATCACTTGTCGTAAACACTTTGGATGGGTTG [3d220], the fraction ligated was found to be 0.75. As for TACACTTGTCGTAAACATTTGGATGGGTTGA [3d674], the figure is 0.457. As for ATCACTTGTCGTAGACACTTTGGAGGGTTGA [3d207], the figure is 0.211; as for TTCACGTCGTAAGACACTTTGGATGGGTTGA [3d336], 0.658; as for “TATCACTTGTCGTAAGACATTTGGAGGTTGA [3d2224]”, 0.00439.

For the sequence “TATCACTTGTCGTAAGACACTTGATGGGTTG [3d2243]”, the fraction ligated amounted to 0.239. As for TATACTTGTCGTAAGACACTTGGATGGGTTGA [2d83], the figure is 0.785. As for TTCACTTTCGTAAGACACTTGGATGGGTTGA [3d364], the figure is 0.13. As for “TATCACTTGTCGTAAGAACTTTGGATGGGTT [3d2181]”, the figure is 0.219; as for “TATCACTTGCGTAAACCTTTGGATGGGTTGA [3d1640]”, 0.821. TATACTGTCGAAGACACTTTGGATGGGTTGA [3d782] had a fraction ligated of 0.71. The same measure for ACACTTGTCGTAAGACACTTTGGAGGGTTGA [3d42]: 0.115. As for TATCTTGTCGTAGACACTTTGGATGGGTTGA [3d745], the figure is 0.819. As for “TATCACTTGTGTAAGACACTTGGAGGGTTGA [3d1789]”, the figure is 0.011.

Turning to “TATCACTTGTCTAAGACACTTTGATGGGTTG [3d1890]”, the fraction ligated was determined as 0.751. As for TAACTTGCGTAAGACACTTTGGATGGGTTGA [3d511], the figure is 0.085; as for “TATCACTTGTCGTAAACCTTTGGAGGGTTGA [3d2070]”, 0.15; as for “TATCACTTGTCGTAAGACACGGATGGGTTGA [3d2231]”, 0.231. As for ACACTTGTCGTAAGACACTTTGGATGGGTTA [3d44], the figure is 0.217; as for “TATCATTCGTAAGACACTTTGGATGGGTTGA [3d1122]”, 0.776; as for “TATCACTTGCGTAAGACCTTTGGATGGGTTA [3d1672]”, 0.785.

For “TATCACTTTGTAAGAACTTTGGATGGGTTGA [3d1469]”, the fraction ligated was 0.866.

TATCCTGTCGTAAACACTTTGGATGGGTTGA [3d956] registered a fraction ligated of 0.796. “TATCACTTGTCGTAAGACCTTTGGATGGGTTG [2d268]” registered a fraction ligated of 0.828. The sequence “TATCACTTGTCGTAAGCTTTGGATGGGTTGA [3d2105]” registered a fraction ligated of 0.759. As for “TATCACTGTCTAAGAACTTTGGATGGGTTGA [3d1362]”, the figure is 0.849; as for TTCACTGTCGTAAGACACTTTGGATGGGTTG [3d354], 0.726. As for “TATCATTGTCGTAAGACACTTTGGTGGGTTA [3d1284]”, the figure is 0.0335; as for TAACTTGTCGTAAGACACTTTGGTGGGTTGA [3d523], 0.0256; as for “TATCATGTCGTAAGCACTTTGGATGGGTTGA [3d1129]”, 0.761. The same measure for TACACTGTCGTAAGACACTTTGGATGGGTTG [3d584]: 0.321; for “TATCACTTGTGTAAGACCTTTGGTGGGTTGA [3d1774]”: 0.157; for TTCACTTGCGTAAACACTTTGGATGGGTTGA [3d375]: 0.356.

ATCCTTGTCGTAAGACACTTTGGATGGTTGA [3d83]: the fraction ligated came out at 0.138. As for TTCACTTGTCGTAAGACACTTTATGGGTTGA [3d491], the figure is 0.00731; as for TATCTTGTCGTAAGACACTTTGGATGGGTTGA [2d69], 0.791. As for “TATCACTTGCGTAAGACACTTGGAGGGTTGA [3d1684]”, the figure is 0.0856.

In the case of “TATCATTGTCGAAGACACTTGGATGGGTTGA [3d1207]”, the fraction ligated stood at 0.771.

“TATCACTTGTCTAGCACTTTGGATGGGTTGA [3d1825]” came in with a fraction ligated of 0.754. The same measure for TTCACTTGTCGTAAGCACTTTGGATGGGTTGA [2d36]: 0.771. As for “TATCACTTGTCGTAAGAACTTTGGATGGTTA [3d2179]”, the figure is 0.11; as for CACTTGTCGTAAGACACTTTGGATGGGTTGA [3d1], 0.637; as for “TATCACTTGTCGTAAGACACTTGGATGGTTGA [2d280]”, 0.0762. As for “TATCACTTGTCGTAAGCACTTTGGATGGTTA [3d2148]”, the figure is 0.153; as for “TATCACTTGCGTAAGACACTTTGGGGGTTGA [3d1694]”, 0.122; as for TACACTTGTCGTAAGACACTTGGAGGGTTGA [3d717], 0.0172. Sequence “TATCACTTGTCGTAAACACTTTGGATGGTTA [3d2101]” yielded a fraction ligated of 0.169. As for “TATCACTTGTCGTACACTTTGGATGGGTTGA [3d1981]”, the figure is 0.797.

The record behind these values is the supplement of paper PMC6755084.
